The assay deals with T1, PE labeled BCMA Fc reagent (AcroBio) (UniProt Q02223 1-54, PE label).
T1 construct: not shown: Fc part of the bought reagent
T1 sequence (looked up): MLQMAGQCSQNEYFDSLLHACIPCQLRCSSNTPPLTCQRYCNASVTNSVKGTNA
Briefly: flow cytometry; PE labeled BCMA Fc staining of transduced T cells. The text has this: T cells were interrogated for cell surface CAR expression using flow cytometry. T cells were stained using a PE labeled BCMA Fc reagent (AcroBio). […] IL2 secretion of scFv-TCR was greater than anti-BCMA CAR in coculture with medium and low BCMA expressing cell lines (FIG. 21C). […] For Live-cell imaging by IncuCyte was used to analyze tumor cell growth of HT1080.BCMA stably transduced with red reporter. The HT1080.BCMA cells grew in the presence of UTD T cells and MAGEA4 TCR-T cells.

B1: scFv-based CAR targeting human BCMA (SEQ ID NO: 101) (other)
chain: DIVLTQSPPSLAMSLGKRATISCRASESVTILGSHLIHWYQQKPGQPPTLLIQLASNVQTGVPARFSGSGSRTDFTLTIDPVEEDDVAVYYCLQSRTIPRTFGGGTKLEIKGSTSGSGKPGSGEGSTKGQIQLVQSGPELKKPGETVKISCKASGYTFTDYSINWVKRAPGKGLKWMGWINTETREPAYAYDFRGRFAFSLETSASTAYLQINNLKYEDTATYFCALDYSYAMDYWGQGTSVTVSSAAATTTPAPRPPTPAPTIASQPLSLRPEACRPAAGGAVHTRGLDFACDIYIWAPLAGTCGVLLLSLVITLYCKRGRKKLLYIFKQPFMRPVQTTQEEDGCSCRFPEEEEGGCELRVKFSRSADAPAYQQGQNQLYNELNLGRREEYDVLDKRRGRDPEMGGKPRRKNPQEGLYNELQKDKMAEAYSEIGMKGERRRGKGHDGLYQGLSTATKDTYDALHMQALPPR
notes: Chimeric antigen receptor on transduced T cells; also called anti-BCMA CAR; BCMA scFv CAR
For the molecule B1, the binding result was “binds”.

B2: MAGEA4-reactive, HLA-A2-restricted TCR embedded with an scFv targeting human BCMA and a 2xG4S linker between the scFv and Va; TRB-P2A-BCMA.scFv-2xG4S-TRA (SEQ … (TCR)
TCR beta: DSGVTQTPKHLITATGQRVTLRCSPRSGDLSVYWYQQSLDQGLQFLIQYYNGEERAKGNILERFSAQQFPDLHSELNLSSLELGDSALYFCASSGGDGDEQFFGPGTRLTVLEDLKNVFPPEVAVFEPSKAEIAHTQKATLVCLATGFYPDHVELSWWVNGKEVHSGVSTDPQPLKEQPALNDSRYCLSSRLRVSATFWQNPRNHFRCQVQFYGLSENDEWTQDRAKPVTQIVSAEAWGRADCGITSASYHQGVLSATILYEILLGKATLYAVLVSALVLMAMVKRKDSRG
TCR alpha: DIVLTQSPPSLAMSLGKRATISCRASESVTILGSHLIHWYQQKPGQPPTLLIQLASNVQTGVPARFSGSGSRTDFTLTIDPVEEDDVAVYYCLQSRTIPRTFGGGTKLEIKGSTSGSGKPGSGEGSTKGQIQLVQSGPELKKPGETVKISCKASGYTFTDYSINWVKRAPGKGLKWMGWINTETREPAYAYDFRGRFAFSLETSASTAYLQINNLKYEDTATYFCALDYSYAMDYWGQGTSVTVSSGGGGSGGGGSAQKITQTQPGMFVQEKEAVTLDCTYDTSDPSYGLFWYKQPSSGEMIFLIYQGSYDQQNATEGRYSLNFQKARKSANLVISASQLGDSAMYFCAMSGGYTGGFKTIFGAGTRLFVKANIQNPDPAVYQLRDSKSSDKSVCLFTDFDSQTNVSQSKDSDVYITDKTVLDMRSMDFKSNSAVAWSNKSDFACANAFNNSIIPEDTFFPSSDVPCDVKLVEKSFETDTNLNFQNLLVIVLRILLLKVAGFNLLMTLRLWSS
notes: also called scFv-TCR; BCMA ScFv TCR
B2: the binding result is “binds”.
